Reference: patent publication US20240216557A1, “RADIOLIGAND BINDING TO ANTI-DLL3 ANTIBODIES FOR PRETARGETED PET IMAGING AND THERAPEUTIC USES THEREOF” (Memorial Sloan-Kettering Cancer Center, priority 2021, published 2024)
Substitutions are numbered along the chain they refer to.

B1: J8: anti-DLL3 antibody, VH SEQ ID NO: 7, VL SEQ ID NO: 8 (antibody, V domains shown)
VH: QVHLVQSGAEVKKPGASVKVSCKASGYTFTIYYIHWVRQAPGQGLEWMGIINPSGGSTSYAQKFQGRVTMTRDTSTSTVYMELSSLRSEDTAVYYCSGNDYVDYVTTDYYGMDVWGQGTTVTVSS
VL: DIQMTQSPSSLSASVGDRVTITCRASQGISNYLAWFQQKPGKAPKSLIYAASSLQSGVPSKFSGSGSGTDFTLTISSLQPEDFATYYCQQYNSSPYTFGQGTKLEIK
B2: L22: anti-DLL3 antibody, VH SEQ ID NO: 17, VL SEQ ID NO: 18 (antibody, V domains shown)
VH: EVQLLESGGGLVQPGGSLRLSCAASGFTFSSYAMGWVRQTPGKGLEWVSTISGRGGDTYYADSVKGRFTISRDNSKNTLYLQMNSLRAEDTAIYYCAKERGLGFDYWGQGTLVTVSS
VL: DIVMTQTPLSLPVTPGEPASISCRSSQSLLDSDDGNTYLDWYLQKPGQSPQLLIYTLSYRASGVPDRFSGSGSGTDFTLKISRVEAEDVGVYYCMQHLEFPLTFGGGTKVEIK
B3: SC16: DLL3-targeting SC16 antibody component of Rova-T (antibody, chains of the INN, looked up, V domains shown)
VH: QVQLVQSGAEVKKPGASVKVSCKASGYTFTNYGMNWVRQAPGQGLEWMGWINTYTGEPTYADDFKGRVTMTTDTSTSTAYMELRSLRSDDTAVYYCARIGDSSPSDYWGQGTLVTVSS
VL: EIVMTQSPATLSVSPGERATLSCKASQSVSNDVVWYQQKPGQAPRLLIYYASNRYTGIPARFSGSGSGTEFTLTISSLQSEDFAVYYCQQDYTSPWTFGQGTKLEIK
B4: A18: anti-DLL3 antibody, VH SEQ ID NO: 34, VL SEQ ID NO: 35 (antibody, V domains shown)
VH: QVTLRESGPALVKSTQTLTLTCTFSGFSLSTSGMCVSWIRQTPGKALEWLALIDWDDNKYYSTSLKTRLIISKDTSKNQVVLTMTNMEPVDTATYYCARIRGYSGSYDAFDIWGQGTMVTVSS
VL: DIVMTQSPLSLPVTPGEPASISCRSSQSLLHSNGYNYLDWYLQKPGQSPHILLYLGSNRAPGVPDRFSGSGSGTDFTLKISRVEAEDVGVYYCMQALQTPFTFGPGTKVDIK
B5: B22: anti-DLL3 antibody, VH SEQ ID NO: 141, VL SEQ ID NO: 142 (antibody, V domains shown)
VH: EVQLVESGGGLVQPGGSLRLSCAASGFTFNNFWMSWVRQAPGKGLEWVANIKQDGSEKYYVDSVKGRFTISRDNAKNSLYLQMNSLRAEDTAVYYCARESYFDLWGRGTLVTVSS
VL: QAVVTQESALTTSPGETVTLTCRSSTGAVTTSNYANWVQEKPDHLFTGLIGGTNNRAPGVPARFSGSLIGDKAALTITGAQTEDEAIYFCALWYSNRWVFGGGTKLTVL
B6: G16: anti-DLL3 antibody, VH SEQ ID NO: 157, VL SEQ ID NO: 158 (antibody, V domains shown)
VH: QVQLVQSGAEVKKPGASVQVSCKASGYTFTSYYMHWVRQAPGQGLEWMGIINPSGGSTSYAQKFQGRVTMTRDTSTSTVYMELSSLRSEDTAVYYCARQGGAQWLVLAFDIWGQGTMVTVSS
VL: EIVLTQSPGTLSLSPGERATLSCRASQSVSSYLAWYQQKPGQAPRLLIYGASSRATGIPDRFSGGGSGTDFTLTISRLEPEDFAVYYCQQYGSSPYTFGQGTKLEIK
B7: F9: anti-DLL3 antibody, VH SEQ ID NO: 126, VL SEQ ID NO: 127 (antibody, V domains shown)
VH: B6 VH
VL: B6 VL with A43P, G92D
B8: B16-v2: anti-DLL3 antibody, VH SEQ ID NO: 108, VL SEQ ID NO: 113 (antibody, V domains shown)
VH: QVQLVQSGAEVKKPGASVKVSCKASGYTFTSYYMHWVRQAPGQGLEWMGIIDPSGGSTSYAQKFQGRVTMTRDTSTNTVYMDLSSLRSEDTAVYYCARQGRYVGSYLDYWGQGTLVTVSS
VL: B1 VL with L47V, L78M, S94Y
B9: O24: anti-DLL3 antibody, VH SEQ ID NO: 66, VL SEQ ID NO: 67 (antibody, V domains shown)
VH: QVQLVQSGAEVKKPGASVKVSCKASGYTFTSYYLHWVRQAPGHGLEWMAIINPSGGSTSYAQKFLGRVTMTRDTSTNTVYMELSSLRSEDTAVYYCARERQQLDYYYFAMDVWGQGTTVTVSS
VL: B1 VL with S94Y, Y96P, L104V
B10: E9: anti-DLL3 antibody, VH SEQ ID NO: 42, VL SEQ ID NO: 43 (antibody, V domains shown)
VH: QVQLVQSGAEVKKPGASVKVSCKASGYTFTSYYMHWVRQAPGQGLEWMGVINSSGGSTSYAQKFQGRVTMTRDTSTSTVYMDLSSLRSEDTAVYYCARGYCTNGVYYDEDFDYWGQGTLVTVSS
VL: B1 VL with N31H, K45T, S94Y, Y96L, Q100G, L104V
B11: E23: anti-DLL3 antibody, VH SEQ ID NO: 119, VL SEQ ID NO: 120 (antibody, V domains shown)
VH: QVQLVQSGAEVRKPGASVKVSCKASGYTFTGYYMHWVRQAPGQGLEWMGWINSYSGGANYAQKFQDRVTMTRDTSVSTASMELSRLRSDDTAVYYCARDGSGWYGSYFDFWGQGTLVTVSS
VL: DIVMTQTPLSSPVTLGQPASISCRSSQSLVHSDGNTYLSWLQQRPGQPPRLLIYKISNRFSGVPDRFSGSGAGTDFTLKISRVEAEDVGFYYCIQTTQFPLTFGGGTKVEIK
B12: [^89Zr]Zr-DFO-SC16 (conjugate, chains of the INN, looked up)
VH: B3 VH
VL: B3 VL
modifications: DFO chelator, 89Zr label

Biological target: T1, hDLL1 (Homo sapiens, UniProt O00548)
T1 sequence (O00548 18-723): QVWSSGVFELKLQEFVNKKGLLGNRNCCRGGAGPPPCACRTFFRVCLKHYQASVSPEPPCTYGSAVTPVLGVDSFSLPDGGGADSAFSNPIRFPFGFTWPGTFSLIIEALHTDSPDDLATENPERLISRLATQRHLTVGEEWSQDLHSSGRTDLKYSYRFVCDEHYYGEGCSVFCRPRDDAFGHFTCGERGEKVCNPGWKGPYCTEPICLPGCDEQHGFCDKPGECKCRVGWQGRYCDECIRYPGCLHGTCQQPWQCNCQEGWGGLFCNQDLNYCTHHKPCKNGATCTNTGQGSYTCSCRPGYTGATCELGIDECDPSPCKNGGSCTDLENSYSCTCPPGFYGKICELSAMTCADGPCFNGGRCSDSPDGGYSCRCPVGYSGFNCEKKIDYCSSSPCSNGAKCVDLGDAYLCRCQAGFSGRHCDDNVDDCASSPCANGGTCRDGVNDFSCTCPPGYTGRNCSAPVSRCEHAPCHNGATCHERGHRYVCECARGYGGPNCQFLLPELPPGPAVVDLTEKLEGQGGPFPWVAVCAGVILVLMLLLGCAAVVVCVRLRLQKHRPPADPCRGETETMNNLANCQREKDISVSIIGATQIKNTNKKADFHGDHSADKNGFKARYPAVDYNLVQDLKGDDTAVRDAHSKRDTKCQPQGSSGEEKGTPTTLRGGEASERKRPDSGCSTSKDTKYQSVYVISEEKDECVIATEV
Assay: ELISA specificity, hDLL1
Assay type: binding
Conditions: not given
Method: Next, affinity, binding domain, and specificity of antibodies including scFv designated as J8, B2, and L22 were analyzed. Affinity, binding domain and specificity of novel human anti-DLL3 antibodies are depicted in Table 30 below.

In order of rising “ELISA hDLL1” value:
1. B1  0.095
2. B2  0.105

Test system: SCLC cells
Assay: not given
Conditions: cited from earlier work

In the case of B3, the “internalization by SCLC cells upon binding to DLL3” value is given as “rapidly internalized”.

Biological target: T2, Histidine-tagged DLL3 antigen (DLL3-His) (Homo sapiens, UniProt Q9NYJ7)
T2 construct: corresponding to amino acids Ala27-Ala479 with a C-terminal 6×His tag; made in house; host or cells: HEK293T cells
T2 sequence (Q9NYJ7 27-479): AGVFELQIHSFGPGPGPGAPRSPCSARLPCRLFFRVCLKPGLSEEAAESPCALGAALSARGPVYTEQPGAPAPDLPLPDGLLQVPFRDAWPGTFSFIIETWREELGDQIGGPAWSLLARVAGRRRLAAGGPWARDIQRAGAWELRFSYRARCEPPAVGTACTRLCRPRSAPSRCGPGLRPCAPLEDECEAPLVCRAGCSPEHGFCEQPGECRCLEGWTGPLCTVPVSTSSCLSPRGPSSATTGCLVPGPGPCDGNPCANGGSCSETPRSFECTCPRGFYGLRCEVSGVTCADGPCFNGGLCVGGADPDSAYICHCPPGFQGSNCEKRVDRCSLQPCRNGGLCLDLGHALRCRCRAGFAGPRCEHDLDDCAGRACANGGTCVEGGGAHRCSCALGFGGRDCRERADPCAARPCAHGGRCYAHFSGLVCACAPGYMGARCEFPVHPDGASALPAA
Assay: Pairwise epitope binning on Carterra array SPR
Conditions: pairwise competition for binding to DLL3-His, antibodies immobilized on HC200M chip
Method: The panel of purified anti-DLL3 monoclonal antibodies and the reference monoclonal antibody were subjected to pairwise epitope binning on a Carterra® array surface plasmon resonance (SPR) assay platform (Carterra*Inc., Salt Lake City UT) where each monoclonal antibody was tested for the capture of Histidine-tagged DLL3 antigen (DLL3-His), and also for competing with every other antibody in the panel for the binding to DLL3-His. The antibodies were immobilized on a HC200M chip (ligand) through standard amine coupling techniques by the print array method. Then in each cycle antigen was injected across the entire array followed by a single antibody (analyte). At the end of each cycle the surface was regenerated to remove antigen and analyte before a new cycle started.

In order of rising “Epitope Bin” value:
1. B5  2
2. B6  4
3. B7  4
4. B8  4
5. B9  4
6. B1  4
7. B10  4
8. B4  6
9. B11  7
10. B2  8

Test system: SCLC xenografts
Assay: not given
Conditions: mouse, in vivo, sc; cited from earlier work

In the case of B12, the “time post-injection at which optimal imaging was achieved” value is given as no less than 120.
